Laboratory results taken from the Human Domainome abundance scans (Beltran et al. 2025).
± gives the uncertainty stated by the source.

B1: RNA-binding E3 ubiquitin-protein ligase MEX3C, residues 325 to 391; numbered along this chain, Q5U5Q3 (parent)
chain: GQTTVQVRVPYRVVGLVVGPKGATIKRIQQQTHTYIVTPSRDKEPVFEVTGMPENVDRAREEIEMHI
B2: Integrator complex subunit 12, residues 155 to 213; numbered along this chain, Q96CB8 (parent)
chain: AMEMGLACVVCRQMMVASGNQLVECQECHNLYHRDCHKPQVTDKEANDPRLVWYCARCT

Variants of: B1
Assay: abundance fitness (aPCA) (normalised: wild type 0, dead -1); higher = more abundant; growth selection in yeast, the domain comes from the species named
Settings: Homo sapiens

Variant	abundance fitness
I67Y	0.476 ± 0.41
I67V	0.119 ± 0.094
I67S	-0.027 ± 0.1
I67M	-0.635 ± 0.4
I67W	0.289 ± 0.19
I67A	0.163 ± 0.11
I67F	-0.437 ± 0.38
I67R	-0.515 ± 0.16
I67G	0.026 ± 0.18
I67C	-0.104 ± 0.24
I67K	-0.778 ± 0.36
I67T	-0.023 ± 0.1
I67P	-0.773 ± 0.28
I67E	-0.235 ± 0.22
E62G	-0.679 ± 0.072
E62K	-0.126 ± 0.093
E62V	-0.114 ± 0.084
E62H	-0.602 ± 0.26
E62I	-0.318 ± 0.14
E62P	-1.01 ± 0.3
E62S	-0.373 ± 0.085
E62Q	0.034 ± 0.092
E62Y	-0.255 ± 0.14
E62L	0.115 ± 0.055
E62R	-0.299 ± 0.054

Variant	abundance fitness
E62M	0.132 ± 0.086
E62C	0.054 ± 0.14
E62D	-0.494 ± 0.18
E62T	-0.52 ± 0.14
E62N	-0.639 ± 0.32
E62A	0.025 ± 0.059
A59M	-0.313 ± 0.14
A59I	-1.08 ± 0.34
A59K	-0.671 ± 0.12
A59P	-0.854 ± 0.17
A59L	-0.886 ± 0.16
A59D	-0.915 ± 0.24
A59E	-0.967 ± 0.24
A59C	-0.374 ± 0.11
A59S	-0.829 ± 0.14
A59W	-1.08 ± 0.33
A59V	-0.719 ± 0.12
A59R	-0.762 ± 0.13
A59T	-0.929 ± 0.35
A59Q	-0.802 ± 0.3
A59H	-0.859 ± 0.33
E64M	-0.006 ± 0.089
E64P	-0.435 ± 0.16
E64W	-0.179 ± 0.07
E64H	-0.222 ± 0.21

Variant	abundance fitness
E64Y	-0.271 ± 0.16
E64G	-0.606 ± 0.065
E64D	-0.015 ± 0.12
E64V	-0.66 ± 0.11
E64L	0.056 ± 0.057
E64K	-0.193 ± 0.14
E64F	-0.029 ± 0.093
E64S	-0.281 ± 0.081
E64C	-0.309 ± 0.18
E64T	-0.779 ± 0.42
H66I	0.404 ± 0.23
H66W	-0.079 ± 0.09
H66V	0.286 ± 0.093
H66S	-0.336 ± 0.092
H66E	-0.143 ± 0.14
H66D	-0.625 ± 0.17
H66Q	0.166 ± 0.12
H66P	-0.88 ± 0.21
H66K	-0.039 ± 0.12
H66T	0.198 ± 0.1
H66R	0.178 ± 0.06
H66G	-0.465 ± 0.1
H66C	0.089 ± 0.099
H66L	0.282 ± 0.073
H66F	0.135 ± 0.14

Variant	abundance fitness
H66Y	0.11 ± 0.095
R60M	-0.296 ± 0.12
R60F	-0.526 ± 0.24
R60Q	-0.639 ± 0.18
R60P	-0.651 ± 0.14
R60A	-0.694 ± 0.12
R60G	-0.575 ± 0.078
R60W	-0.53 ± 0.14
R60I	-0.026 ± 0.12
R60H	-0.401 ± 0.17
R60C	-0.025 ± 0.082
R60D	-1.13 ± 0.45
R60T	-0.557 ± 0.11
R60K	-0.024 ± 0.092
R60V	-0.006 ± 0.056
R60E	-0.739 ± 0.26
R60L	-0.098 ± 0.057
E61S	-0.089 ± 0.06
E61I	-0.472 ± 0.11
E61W	-0.353 ± 0.09
E61Y	-0.177 ± 0.13
E61Q	-0.023 ± 0.084
E61K	0.069 ± 0.11
E61N	-0.36 ± 0.12
E61P	-0.85 ± 0.16

Variant	abundance fitness
E61D	-0.043 ± 0.083
E61A	0.014 ± 0.073
E61L	-0.266 ± 0.071
E61T	-0.037 ± 0.088
E61F	-0.342 ± 0.1
E61G	-0.343 ± 0.056
E61H	0.022 ± 0.16
E61M	-0.161 ± 0.11
E61V	-0.17 ± 0.076
M65S	0.12 ± 0.058
M65R	0.216 ± 0.05
M65G	-0.049 ± 0.049
M65Y	0.366 ± 0.11
M65A	0.142 ± 0.06
M65L	-0.114 ± 0.054
M65D	-0.223 ± 0.17
M65K	0.224 ± 0.06
M65C	-0.285 ± 0.11
M65W	-0.184 ± 0.074
M65I	-0.099 ± 0.18
M65T	0.004 ± 0.08
M65P	-0.699 ± 0.2
M65N	0.033 ± 0.18
M65F	-0.264 ± 0.23
M65V	-0.449 ± 0.067

Variant	abundance fitness
M65Q	0.225 ± 0.076
M65H	0.125 ± 0.084
R58P	-1.09 ± 0.23
R58K	0.067 ± 0.13
R58Q	-0.304 ± 0.11
R58W	-0.555 ± 0.1
R58N	-0.434 ± 0.35
R58M	-0.409 ± 0.1
R58V	-0.616 ± 0.1
R58T	-1.1 ± 0.33
R58S	-0.614 ± 0.1
I63C	-0.734 ± 0.15
I63N	-0.094 ± 0.26
I63Y	-0.748 ± 0.19
I63A	-0.845 ± 0.14
I63H	-0.772 ± 0.25
I63M	-0.772 ± 0.16
I63Q	-0.863 ± 0.22
I63V	-0.512 ± 0.077
I63P	-0.461 ± 0.098
I63S	-0.894 ± 0.15
I63L	-0.412 ± 0.11
I63G	-0.899 ± 0.14
I63W	-0.768 ± 0.16

Variants of: B2
Assay: as above
Settings: Homo sapiens

Variant	abundance fitness
M2D	-0.185 ± 0.044
M2C	-0.112 ± 0.04
M2A	-0.142 ± 0.043
A1N	0.109 ± 0.086
A1P	-0.581 ± 0.19
A1V	0.037 ± 0.043
A1W	-0.199 ± 0.24
A1M	0.03 ± 0.2
A1R	-0.061 ± 0.088
A1Y	-0.168 ± 0.13
A1I	-0.049 ± 0.18
A1C	-0.099 ± 0.12
A1G	-0.115 ± 0.044
A1K	0.154 ± 0.25
A1H	0.245 ± 0.17
A1F	-0.161 ± 0.11
A1S	0.046 ± 0.071
A1T	0.125 ± 0.068
